Patent publication US20230138047A1, “ANTI-CLAUDIN-1 MONOCLONAL ANTIBODIES FOR THE PREVENTION AND TREATMENT OF FIBROTIC DISEASES” (Université de Strasbourg, priority 2019, published 2023)

Assays:
[1] = target: T1, CLDN1 expressed on RPTEC/TERT1 cells (Homo sapiens, UniProt O95832); test: Flow cytometry binding study on RPTEC/TERT1 kidney cells
T1 construct: endogenous in cells; host or cells: RPTEC/TERT1
T1 sequence (O95832 1-211): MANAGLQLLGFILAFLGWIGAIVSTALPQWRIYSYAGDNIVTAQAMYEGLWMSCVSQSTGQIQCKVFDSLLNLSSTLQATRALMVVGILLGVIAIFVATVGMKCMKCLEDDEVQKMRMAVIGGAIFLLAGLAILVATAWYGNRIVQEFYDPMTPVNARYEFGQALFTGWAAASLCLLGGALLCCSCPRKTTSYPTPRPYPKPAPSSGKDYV
Protocol: (§1) Cell Lines. The kidney cancer cell line RPTEC/TERT1 and lung cancer cell line A549, both originally from ATCC, were obtained from IGBMC in a collaboration with Dr. Irwin Davidson and Dr. Izabella Sumara, respectively. Both cell lines were cultured according to provider's instructions: the RPTEC/TERT1 kidney cancer cells were grown in ATCC-formulated DMEM:F12 Medium supplemented with hTERT RPTEC Growth Kit and 0.1 mg/mL G418. The A549 lung cancer cells were grown in ATCC-formulated F-12K Medium supplemented with 10% fetal bovine serum.
(§2) Binding Studies. Cells were de-attached using a solution of EDTA (4 mM) and re-suspended in PBS containing 1% FBS at 4° C. Then, 150,000 cells were incubated with increasing concentrations of the humanized H3L3 CLDN1-specific mAb (see WO/2017/162678) and the binding signals were read by flow cytometry after incubation with PE-labelled anti-human using a dilution of 1:100 and analyzed with Cytoflex and FlowJo V10. Two washes with PBS containing 1% FBS were performed after every antibody incubation. A binding curve for each cell line was built using the PE median fluorescence intensity (MFI) and the Kd of the interaction was calculated by applying the Michaelis-Menten mathematical model in R 3.5.1.

[2] = system: Adriamycin-induced nephropathy; test: Adriamycin-induced nephropathy model; format: in vivo, BALB/c mice; settings: 250 μg/mouse i.p. twice weekly, 27 days; versus control group and valproic acid group
Protocol: The Adriamycin-induced nephropathy (ADR) model is a well-characterized disease model for chronic kidney disease and mirrors human kidney disease caused by primary focal segmental glomerulosclerosis (FSGS). The Adriamycin-induced nephropathy is a mouse model the mimics human FSGS (Focal Segmental Glomerulosclerosis). An efficacy study was performed at SMC lab (Tokyo, Japan) in accordance with local standards of ethics and animal care. Induction of Adriamycin-induced nephropathy model started on Day 0, when mice were intravenously administered adriamycin (doxorubicin hydrochloride, Wako Pure Chemical Industries, Ltd., Japan) in 0.9% saline at a dose of 13 mg/kg, in a volume of 10 mL/kg.
Groups of eight Adriamycin-induced nephropathic male BALB/c mice were administered either vehicle [saline], anti-CLDNA 1 mAb H3L3 (250 μg/mouse, twice weekly) intraperitoneally, or VPA (=valproic acid, provided at 0.4% in the drinking water) as a positive control for 27 days. Serum creatinine and BUN (blood urea nitrogen) was measured by FUJI DRI-CHEM 7000 (Fujifilm Corporation, Japan).

TGF-β signalling = test: TGF-β signaling reporter assay in A549 cells; format: cell-based; settings: 50 μg/mL for 3 hours, TGF-β 10 ng/mL
Protocol: TGF-β Signaling Reporter Assay. A549 cells were transfected with TGF-β signalling reporter plasmid pGLA4.48[luc2P/SBE/Hygro] (Promega) using Fugene according to the manufacturer's instructions. Following transfection, the cells were supplemented with fresh medium containing control or CLDN1-specific mAb (50 μg/mL) for 3 hours at 37° C. Fresh medium was supplemented to the cells containing TGF-β (10 ng/mL) (Sigma) for 3 hours at 37° C. The plate was incubated for 15 minutes at room temperature followed by addition of ONE-Glo substrate (Promega) for 3 minutes at room temperature. Luminescence of the supernatants was read using a Berthold microplate reader.

[3] = target: T2, CLDN1 on HREpic (PECs model) (Homo sapiens, UniProt O95832); test: Flow cytometry binding on Human Renal Epithelial Cells (HREpic); settings: 10 μg/mL, 24 hours after TNFα 10 ng/mL
T2 construct: Human Renal Epithelial Cells (HREpic), which are primary cell isolated from human kidney; host or cells: HREpic (Human Renal Epithelial Cells), TNFα-treated
T2 sequence (O95832 1-211): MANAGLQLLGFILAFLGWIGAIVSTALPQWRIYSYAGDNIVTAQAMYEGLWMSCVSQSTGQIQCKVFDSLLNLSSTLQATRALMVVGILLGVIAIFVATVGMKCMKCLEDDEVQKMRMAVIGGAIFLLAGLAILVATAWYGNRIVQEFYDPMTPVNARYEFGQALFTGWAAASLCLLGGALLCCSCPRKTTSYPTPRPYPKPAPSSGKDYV
Protocol: (§3) Cells. Human Renal Epithelial Cells (HREpic) were purchased from ScienCell Research Laboratories and grown in Epithelial Cell Medium according to manufacturer's instructions.
Flow cytometry. H3L3 binding and expression of human CLDN1 in HREpic was analyzed by flow cytometry 24 hours after TNFα treatment (10 ng/mL). Briefly, 200,000 cells per conditions were stained using H3L3 (10 μg/mL) or Mota (10 μg/mL) used as negative control. Primary antibodies were detected using an Alexa fluor 647-conjugated human-specific secondary antibody. Data were acquired using Cytoflex B2R2V0 (Beckman Coulter) and analyzed using CytExpert 2.1 and FlowJo v10. CLDN1 expression is shown as the difference of the mean fluorescence intensities of cells stained with H3L3 and cells stained with Mota.

[4] = system: Human Renal Epithelial Cells (HREpic); test: HREpic 3D-culture proliferation/viability (ATP quantification); format: cell-based; settings: TNFα 10 ng/mL, 10 μg/mL antibody, 6 days, preliminary data
Protocol: as §3
H3L3 Treatment. For 2D-culture, cells were seeded in 24-well plates coated with Poly-L-Lysine at a cell density of 5.10^4 cells/well. After 24 hours, the cells were treated with TNFα 10 ng/mL and Mota (10 μg/mL) or H3L3 (10 μg/mL). After 3 days, the cells were again treated with TNFα and antibody for 3 more days. After 6 days of treatment in total, the cells were lysed to measure gene expression by qRT-PCR. For 3D-culture, cells were seeded in 96-well ultra-low attachment plates (Corning, Sigma Aldrich, France) at a cell density of 5×10^3 cells/well. The same treatment as described above was applied for 6 days. Cell viability was assessed by ATP quantification using CellTitreGlo (Promega) according to manufacturer's instructions.
Statistics. Data are presented as the mean±s.d. and were analyzed by the unpaired Student's t-test or the two-tailed Mann-Whitney test as indicated after determination of distribution by the Shapiro-Wilk normality test. All experiments were performed at least in triplicates for 2D-culture and quadruplicates for 3D-culture. Data are considered as significant at p<0.05. Statistical analyzes for in vitro experiments were performed with GraphPad Prism 6 software.

[5] = target: T3, CLDN1 expressed on A549 cells (Homo sapiens, UniProt O95832); test: Flow cytometry binding study on A549 lung cells; set-up: unit not given here
T3 construct: endogenous in cells; host or cells: A549
T3 sequence (O95832 1-211): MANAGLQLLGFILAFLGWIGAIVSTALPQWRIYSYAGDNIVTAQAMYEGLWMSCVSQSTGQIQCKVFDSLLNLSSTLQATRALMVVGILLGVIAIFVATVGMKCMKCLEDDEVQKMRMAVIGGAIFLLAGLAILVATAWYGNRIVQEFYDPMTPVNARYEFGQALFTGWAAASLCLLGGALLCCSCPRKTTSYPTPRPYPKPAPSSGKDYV
Protocol: as §1, §2

concentration saturating the epitope [1]: 50 µg/mL | binding to PECs CLDN1 [3]: binds to PECs CLDN1 | concentration saturating the epitope [5]: 20
B1: H3L3: humanized anti-Claudin-1 monoclonal antibody, two VH of SEQ ID NO: 3 and two VL of SEQ ID NO: 6 (antibody, V domains shown)
VH: QVQLVESGGGVVQPGRSLRLSCLGSGFSFSSYGMNWVRQAPGKGLEWVASISPSGSYFYYADSVKGRFTISRDNSKNTLYLQMTSLRAEDTAIYYCARLPGFNPPFDHWGQGTLVTVSS
VL: DIQMTQSPSSLSASVGDRVTITCKASQNVGGNVDWYQWKPGKAPKLLIYGASNRYTGVPDRFRGSGSGTDFTLTISSLQPEDVATYYCLQYKNNPWTFGGGTKVEIK
modifications: humanized variable heavy chain H3; humanized variable light chain L3
serum BUN [2]: non-significant but pronounced reduction | serum creatinine [2]: non-significant but pronounced reduction | TGF-β reporter activity (TGF-β signalling): significant reduction | cell proliferation/viability [4]: slight decrease
